Test results: PMC11137178, “Protein disulfide isomerase-9 interacts with the lumenal region of the transmembrane endoplasmic reticulum stress sensor kinase, IRE1, to modulate the unfolded protein response in Arabidopsis” (Frontiers in Plant Science, 2024)
Positions count from the first letter of the chain named. Numbers in names are those of the source. Values belong to the binder of their own block, whether it stands above or below them.

Assays:
[1] = molecular target: T1, PDI9(C63A):mCherry-KDEL (Arabidopsis thaliana, UniProt O48773 25-440, C63A); test: FRET or BRET; FLIM-FRET in living Arabidopsis leaf mesophyll protoplasts coexpressing the GFP donor (on IRE1) and the mCherry acceptor (on PDI9), 16-18 h after transfection; GFP lifetime per region of interest; E = (1 - ti/t0) x 100% against single-transfected GFP:IRE1; conditions: partners not purified
T1 construct: PDI9, Arabidopsis thaliana, At2g32920; as m1 with the second cysteine of the first thioredoxin active site (CGHC to CGHA) changed; Parent construct m1; source: Arabidopsis leaf mesophyll protoplasts, transiently transfected, in living cells; not shown: mCherry-KDEL, C-terminal, kept
T1 sequence (looked up): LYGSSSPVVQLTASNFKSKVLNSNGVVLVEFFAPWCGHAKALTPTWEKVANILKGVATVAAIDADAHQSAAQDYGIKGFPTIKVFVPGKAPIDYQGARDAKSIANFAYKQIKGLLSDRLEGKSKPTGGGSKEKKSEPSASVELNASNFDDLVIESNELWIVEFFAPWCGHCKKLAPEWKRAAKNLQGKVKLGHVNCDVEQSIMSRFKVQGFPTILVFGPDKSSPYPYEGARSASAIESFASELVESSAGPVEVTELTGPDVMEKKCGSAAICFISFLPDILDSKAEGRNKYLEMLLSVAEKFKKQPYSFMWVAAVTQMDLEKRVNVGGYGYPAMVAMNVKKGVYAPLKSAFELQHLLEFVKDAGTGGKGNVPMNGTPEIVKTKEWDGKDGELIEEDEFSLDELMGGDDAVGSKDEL

[2] = molecular target: T2, PDI9:mCherry-KDEL (Arabidopsis thaliana, UniProt O48773 25-440); test: as above; conditions: partners not purified
T2 construct: Protein disulfide isomerase-9 (PDI9, PDI-M subfamily), Arabidopsis thaliana, At2g32920; made from the earlier construct PDI9:GFP-KDEL (Yuen et al., 2013) by exchanging GFP for mCherry; also called PDI9:Cherry-KDEL; PDI9:RFP; source: Arabidopsis leaf mesophyll protoplasts, transiently transfected, in living cells; not shown: mCherry-KDEL, C-terminal, kept
T2 sequence (looked up): T1 sequence (looked up) with A39C

- GFP donor fluorescence lifetime [1]: 2.42 ns
- GFP donor fluorescence lifetime [2]: 2.29 ns
B1: GFP : IRE1A (receptor, Arabidopsis thaliana, UniProt Q9C5S2 31-841, looked up)
chain: DDVTYPIVPSSPGRRSILQIRREPPTEPNTKLVVDRDGKVFLKQQPKETPYWSFSTGSPMHSLYQAPANNNTENATEITRPHIIVEYLNNSKAATTVDGYHNWTVQEFFRQKPLVTDDGVTLGSETTSAYLVDGRSGRLIHVYKSTGDTKITNALVKPASTEDFVNEPLLIRRTDSKLEHFSKTTGKLVWNLTVSHFRAALLCDPVFNSGYDLGPKLQTGIYMPLLCGSQIDVRGPEIVIRVLHDQPMNVKMLPSPSLNHFESENSIMPFGKARESRKLQEQHKQKYTYLFGQWSPVKLLAPLVLLGVVVSVFIKKFSSRGSDVSLKAGPSKKKKNRKSAKDTNRQSVPRGQDQFELIEGGQMLLGFNNFQSGATDGRKIGKLFLSSKEIAKGSNGTVVFEGIYEGRPVAVKRLVRSHHEVAFKEIQNLIASDQHTNIIRWYGVEYDQDFVYLSLERCTCSLDDLIKSYLEFSMTKVLENNDSTEGVAAYKIQLDSLEGVIKGNNFWKVGGHPSPLMLKLMRDIVCGIVHLHELGIVHRDLKPQNVLISKDMTLSAKLSDMGISKRMSRDMSSLGHLATGSGSSGWQAPEQLLQGRQTRAVDMFSLGCVIFYTITGCKHPFGDDLERDVNIVKNKVDLFLVEHVPEASDLISRLLNPDPDLRPSATEVLLHPMFWNSEMRLSFLRDASDRVELENREADSEILKAMESTAPVAIGGKWDEKLEPVFITNIGRYRRYKYDSIRDLLRVIRNKLNHHRELPPEIQELVGTVPEGFDEYFAVRFPKLLIEVYRVISLHCREEEVFRKYFKCDII
notes: IRE1A (inositol-requiring enzyme-1 kinase), Arabidopsis thaliana, At2g17520; mature polypeptide region amplified from Col-0 genomic DNA and placed after the IRE1A signal peptide and GFP; Construct order: IRE1A signal peptide, GFP, mature IRE1A; source: Arabidopsis leaf mesophyll protoplasts, transiently transfected; in living cells (FLIM-FRET) and in protoplast extract (co-I.P.); not shown: GFP …

- GFP donor fluorescence lifetime [1]: 2.42 ns
- GFP donor fluorescence lifetime [2]: 2.31 ns
B2: GFP : IRE1B (receptor, Arabidopsis thaliana, UniProt Q93VJ2 22-881, looked up)
chain: FKGSEISKFYDKSISNQISQSDRESGYVLVSTVDGSISLVDMSSQKLDWTFHTNEPIYSSYQAPHYHYTTDEERSSVLGDDFYMDCDKDWRLYNSSVRKGKRVNEIVDASEFIGTLPYTSTDRIVLGKKDTSVFLLDWKTGKLVKRYRMDELYSNTVVENDKEKAIVLSKEAPLLFGSGFKKSEDFPELVYIERKDFKIQCISKFGDVLWSVSYAKMEAKLQNHESVQFISGLSSSVGKNQFPLSYTTSVPMVQLRNVKYETLFPRLGFLDEALYLPFQDRKPNQLAIGDGNQLTLPGNKEAEEVLSLPLPETVISQITDIIDGSTKQAGFASKFSGLIVLIFGFCVTMLSVCGLFFYRLRQSIRIKEPYVSEVPIATPKKKKSKKNGTTKAVHKKENGFISGGNKDPSHEENEKRLLTAFPGLNNSSAEGYRVGKLFVSNKEIAKGSNGTVVLEGSYEGRLVAVKRLVQSHHDVAQKEILNLMASDKHSNIVRWYGVDQDEHFIYISLELCACSLNDLIYASSALLESPMASSSIHSIQINPIFENGKGVELWKENGHPSPVLLKLMRDIVAGLVHLHDIGIVHRDLKPQNVLIVKNSSLCAKLSDMGISKRLPADTSALTRNSTGLGSGSSGWQAPEQLRNERQTRAVDLFSLGCVLFFCMTGGKHPYGDNYERDVNVLNDQKDLFLIESLPEAVHLLTGLLNPDPNLRPRAQDVMHHPLFWNSDMRLSFLRDASDRVELENREEGSQLLAALESTAAVTLNGRWDEKLDSIFLDNIGRYRRYKFDSIRDLLRVIRNKLNHYRELPKELQELLGSVPEGFERYFSSRFPKLLIQVYTVLFDYCNNEEFFFKYSKTTVF
notes: IRE1B, Arabidopsis thaliana, At5g24360; mature polypeptide region amplified from Col-0 genomic DNA and placed after the IRE1B signal peptide and GFP; Construct order: IRE1B signal peptide, GFP, mature IRE1B; source: Arabidopsis leaf mesophyll protoplasts, transiently transfected; in living cells (FLIM-FRET) and in protoplast extract (co-I.P.); not shown: GFP (eGFP S65T), N-terminal, kept
